Columns and labels:
[1] = target: Flag-tagged Atlantic halibut Aqp1ab1 wild-type canonical channel (Flag-HhAqp1ab1-WT) (Atlantic halibut (Hippoglossus hippoglossus))
[2] = target: Flag-tagged Senegalese sole Aqp1ab2 wild-type canonical channel (Flag-SsAqp1ab2-WT) (Senegalese sole (Solea senegalensis))

In the case of “HA-tagged Atlantic halibut Aqp1ab1 splice variant 1 (HA-HhAqp1ab1_v1)”, the inhibition of osmotic water permeability (Pf) of X. laevis oocytes coexpressing HhAqp1ab1 v1 and HhAqp1ab1-WT in ratios from 0.05 to 50, untagged forms, with respect to the canonical channel only [1] is reported as 94%.

“HA-tagged Senegalese sole Aqp1ab2 splice variant 2 (HA-SsAqp1ab2_v2) (natural protein)” showed an inhibition of osmotic water permeability (Pf) of X. laevis oocytes expressing SsAqp1ab2-WT plus YwhazLb, treated with FSK, after injecting equal cRNA amounts of WT and SsAqp1ab2 v2, untagged forms [2] of 84%.
